In patent US20140087995A1 (published 2014):
Numbered stars: 1 amine (or outer) side, 2 acyl side, 3 side chain; on linkers, the order of the positions; unused ones are H or OH. Bridge positions count the residues as written; N and C are the ends. * marks the point of attachment. C20 diacid = O=C(O)CCCCCCCCCCCCCCCCCCC(=O)*; γGlu = O=C(O)[C@H](CCC(=O)[*:2])N[*:1]

B1: N^α1-[(4S)-4-carboxy-4-(19-carboxynonadecanoylamino)butanoyl]-[Arg17,Pro21,Pro27,Pro31,Glu35]-h-amylin (peptide)
peptide: {C20 diacid-γGlu}-KCNTATCATQRLANFLRHSSPNFGAIPSSTPVGSETY-NH2
modifications: disulfide 2-7
SMILES: CC[C@H](C)[C@H](NC(=O)[C@H](C)NC(=O)CNC(=O)[C@H](Cc1ccccc1)NC(=O)[C@H](CC(N)=O)NC(=O)[C@@H]1CCCN1C(=O)[C@H](CO)NC(=O)[C@H](CO)NC(=O)[C@H](Cc1c[nH]cn1)NC(=O)[C@H](CCCNC(=N)N)NC(=O)[C@H](CC(C)C)NC(=O)[C@H](Cc1ccccc1)NC(=O)[C@H](CC(N)=O)NC(=O)[C@H](C)NC(=O)[C@H](CC(C)C)NC(=O)[C@H](CCCNC(=N)N)NC(=O)[C@H](CCC(N)=O)NC(=O)[C@@H](NC(=O)[C@H](C)NC(=O)[C@@H]1CSSC[C@H](NC(=O)[C@H](CCCCN)NC(=O)CC[C@H](NC(=O)CCCCCCCCCCCCCCCCCCC(=O)O)C(=O)O)C(=O)N[C@@H](CC(N)=O)C(=O)N[C@@H]([C@@H](C)O)C(=O)N[C@@H](C)C(=O)N[C@@H]([C@@H](C)O)C(=O)N1)[C@@H](C)O)C(=O)N1CCC[C@H]1C(=O)N[C@@H](CO)C(=O)N[C@@H](CO)C(=O)N[C@H](C(=O)N1CCC[C@H]1C(=O)N[C@H](C(=O)NCC(=O)N[C@@H](CO)C(=O)N[C@@H](CCC(=O)O)C(=O)N[C@H](C(=O)N[C@@H](Cc1ccc(O)cc1)C(N)=O)[C@@H](C)O)C(C)C)[C@@H](C)O
notes: also called compound 28
B2: N^α1-[(4S)-4-carboxy-4-(19-carboxynonadecanoylamino)butanoyl]-[Glu14,Arg17,Pro21,Pro27,Asp35,Pro37]-h-amylin (peptide)
peptide: {C20 diacid-γGlu}-KCNTATCATQRLAEFLRHSSPNFGAIPSSTNVGSDTP-NH2
modifications: disulfide 2-7
SMILES: CC[C@H](C)[C@H](NC(=O)[C@H](C)NC(=O)CNC(=O)[C@H](Cc1ccccc1)NC(=O)[C@H](CC(N)=O)NC(=O)[C@@H]1CCCN1C(=O)[C@H](CO)NC(=O)[C@H](CO)NC(=O)[C@H](Cc1c[nH]cn1)NC(=O)[C@H](CCCNC(=N)N)NC(=O)[C@H](CC(C)C)NC(=O)[C@H](Cc1ccccc1)NC(=O)[C@H](CCC(=O)O)NC(=O)[C@H](C)NC(=O)[C@H](CC(C)C)NC(=O)[C@H](CCCNC(=N)N)NC(=O)[C@H](CCC(N)=O)NC(=O)[C@@H](NC(=O)[C@H](C)NC(=O)[C@@H]1CSSC[C@H](NC(=O)[C@H](CCCCN)NC(=O)CC[C@H](NC(=O)CCCCCCCCCCCCCCCCCCC(=O)O)C(=O)O)C(=O)N[C@@H](CC(N)=O)C(=O)N[C@@H]([C@@H](C)O)C(=O)N[C@@H](C)C(=O)N[C@@H]([C@@H](C)O)C(=O)N1)[C@@H](C)O)C(=O)N1CCC[C@H]1C(=O)N[C@@H](CO)C(=O)N[C@@H](CO)C(=O)N[C@H](C(=O)N[C@@H](CC(N)=O)C(=O)N[C@H](C(=O)NCC(=O)N[C@@H](CO)C(=O)N[C@@H](CC(=O)O)C(=O)N[C@H](C(=O)N1CCC[C@H]1C(N)=O)[C@@H](C)O)C(C)C)[C@@H](C)O
notes: also called compound 11
B3: N^α1-[(4S)-4-carboxy-4-(19-carboxynonadecanoylamino)butanoyl]-[Glu14,Arg17,Pro21,Pro27,His34]-h-amylin (peptide)
peptide: {C20 diacid-γGlu}-KCNTATCATQRLAEFLRHSSPNFGAIPSSTNVGHNTY-NH2
modifications: disulfide 2-7
SMILES: CC[C@H](C)[C@H](NC(=O)[C@H](C)NC(=O)CNC(=O)[C@H](Cc1ccccc1)NC(=O)[C@H](CC(N)=O)NC(=O)[C@@H]1CCCN1C(=O)[C@H](CO)NC(=O)[C@H](CO)NC(=O)[C@H](Cc1c[nH]cn1)NC(=O)[C@H](CCCNC(=N)N)NC(=O)[C@H](CC(C)C)NC(=O)[C@H](Cc1ccccc1)NC(=O)[C@H](CCC(=O)O)NC(=O)[C@H](C)NC(=O)[C@H](CC(C)C)NC(=O)[C@H](CCCNC(=N)N)NC(=O)[C@H](CCC(N)=O)NC(=O)[C@@H](NC(=O)[C@H](C)NC(=O)[C@@H]1CSSC[C@H](NC(=O)[C@H](CCCCN)NC(=O)CC[C@H](NC(=O)CCCCCCCCCCCCCCCCCCC(=O)O)C(=O)O)C(=O)N[C@@H](CC(N)=O)C(=O)N[C@@H]([C@@H](C)O)C(=O)N[C@@H](C)C(=O)N[C@@H]([C@@H](C)O)C(=O)N1)[C@@H](C)O)C(=O)N1CCC[C@H]1C(=O)N[C@@H](CO)C(=O)N[C@@H](CO)C(=O)N[C@H](C(=O)N[C@@H](CC(N)=O)C(=O)N[C@H](C(=O)NCC(=O)N[C@@H](Cc1c[nH]cn1)C(=O)N[C@@H](CC(N)=O)C(=O)N[C@H](C(=O)N[C@@H](Cc1ccc(O)cc1)C(N)=O)[C@@H](C)O)C(C)C)[C@@H](C)O
notes: also called compound 17
B4: N^α1-[(4S)-4-carboxy-4-(19-carboxynonadecanoylamino)butanoyl]-[Asp14,Arg17,Pro21,Pro27,Pro37]-h-amylin (peptide)
peptide: {C20 diacid-γGlu}-KCNTATCATQRLADFLRHSSPNFGAIPSSTNVGSNTP-NH2
modifications: disulfide 2-7
SMILES: CC[C@H](C)[C@H](NC(=O)[C@H](C)NC(=O)CNC(=O)[C@H](Cc1ccccc1)NC(=O)[C@H](CC(N)=O)NC(=O)[C@@H]1CCCN1C(=O)[C@H](CO)NC(=O)[C@H](CO)NC(=O)[C@H](Cc1c[nH]cn1)NC(=O)[C@H](CCCNC(=N)N)NC(=O)[C@H](CC(C)C)NC(=O)[C@H](Cc1ccccc1)NC(=O)[C@H](CC(=O)O)NC(=O)[C@H](C)NC(=O)[C@H](CC(C)C)NC(=O)[C@H](CCCNC(=N)N)NC(=O)[C@H](CCC(N)=O)NC(=O)[C@@H](NC(=O)[C@H](C)NC(=O)[C@@H]1CSSC[C@H](NC(=O)[C@H](CCCCN)NC(=O)CC[C@H](NC(=O)CCCCCCCCCCCCCCCCCCC(=O)O)C(=O)O)C(=O)N[C@@H](CC(N)=O)C(=O)N[C@@H]([C@@H](C)O)C(=O)N[C@@H](C)C(=O)N[C@@H]([C@@H](C)O)C(=O)N1)[C@@H](C)O)C(=O)N1CCC[C@H]1C(=O)N[C@@H](CO)C(=O)N[C@@H](CO)C(=O)N[C@H](C(=O)N[C@@H](CC(N)=O)C(=O)N[C@H](C(=O)NCC(=O)N[C@@H](CO)C(=O)N[C@@H](CC(N)=O)C(=O)N[C@H](C(=O)N1CCC[C@H]1C(N)=O)[C@@H](C)O)C(C)C)[C@@H](C)O
notes: also called compound 10
B5: N^α1-[(4S)-4-carboxy-4-(19-carboxynonadecanoylamino)butanoyl]-[Glu14,Arg17,Pro21,Pro27,Arg35]-h-amylin (peptide)
peptide: {C20 diacid-γGlu}-KCNTATCATQRLAEFLRHSSPNFGAIPSSTNVGSRTY-NH2
modifications: disulfide 2-7
SMILES: CC[C@H](C)[C@H](NC(=O)[C@H](C)NC(=O)CNC(=O)[C@H](Cc1ccccc1)NC(=O)[C@H](CC(N)=O)NC(=O)[C@@H]1CCCN1C(=O)[C@H](CO)NC(=O)[C@H](CO)NC(=O)[C@H](Cc1c[nH]cn1)NC(=O)[C@H](CCCNC(=N)N)NC(=O)[C@H](CC(C)C)NC(=O)[C@H](Cc1ccccc1)NC(=O)[C@H](CCC(=O)O)NC(=O)[C@H](C)NC(=O)[C@H](CC(C)C)NC(=O)[C@H](CCCNC(=N)N)NC(=O)[C@H](CCC(N)=O)NC(=O)[C@@H](NC(=O)[C@H](C)NC(=O)[C@@H]1CSSC[C@H](NC(=O)[C@H](CCCCN)NC(=O)CC[C@H](NC(=O)CCCCCCCCCCCCCCCCCCC(=O)O)C(=O)O)C(=O)N[C@@H](CC(N)=O)C(=O)N[C@@H]([C@@H](C)O)C(=O)N[C@@H](C)C(=O)N[C@@H]([C@@H](C)O)C(=O)N1)[C@@H](C)O)C(=O)N1CCC[C@H]1C(=O)N[C@@H](CO)C(=O)N[C@@H](CO)C(=O)N[C@H](C(=O)N[C@@H](CC(N)=O)C(=O)N[C@H](C(=O)NCC(=O)N[C@@H](CO)C(=O)N[C@@H](CCCNC(=N)N)C(=O)N[C@H](C(=O)N[C@@H](Cc1ccc(O)cc1)C(N)=O)[C@@H](C)O)C(C)C)[C@@H](C)O
notes: also called compound 16
B6: N^α1-[(4S)-4-carboxy-4-(19-carboxynonadecanoylamino)butanoyl]-[Arg17,Pro21,Pro27,Pro34,Glu35]-h-amylin (peptide)
peptide: {C20 diacid-γGlu}-KCNTATCATQRLANFLRHSSPNFGAIPSSTNVGPETY-NH2
modifications: disulfide 2-7
SMILES: CC[C@H](C)[C@H](NC(=O)[C@H](C)NC(=O)CNC(=O)[C@H](Cc1ccccc1)NC(=O)[C@H](CC(N)=O)NC(=O)[C@@H]1CCCN1C(=O)[C@H](CO)NC(=O)[C@H](CO)NC(=O)[C@H](Cc1c[nH]cn1)NC(=O)[C@H](CCCNC(=N)N)NC(=O)[C@H](CC(C)C)NC(=O)[C@H](Cc1ccccc1)NC(=O)[C@H](CC(N)=O)NC(=O)[C@H](C)NC(=O)[C@H](CC(C)C)NC(=O)[C@H](CCCNC(=N)N)NC(=O)[C@H](CCC(N)=O)NC(=O)[C@@H](NC(=O)[C@H](C)NC(=O)[C@@H]1CSSC[C@H](NC(=O)[C@H](CCCCN)NC(=O)CC[C@H](NC(=O)CCCCCCCCCCCCCCCCCCC(=O)O)C(=O)O)C(=O)N[C@@H](CC(N)=O)C(=O)N[C@@H]([C@@H](C)O)C(=O)N[C@@H](C)C(=O)N[C@@H]([C@@H](C)O)C(=O)N1)[C@@H](C)O)C(=O)N1CCC[C@H]1C(=O)N[C@@H](CO)C(=O)N[C@@H](CO)C(=O)N[C@H](C(=O)N[C@@H](CC(N)=O)C(=O)N[C@H](C(=O)NCC(=O)N1CCC[C@H]1C(=O)N[C@@H](CCC(=O)O)C(=O)N[C@H](C(=O)N[C@@H](Cc1ccc(O)cc1)C(N)=O)[C@@H](C)O)C(C)C)[C@@H](C)O
notes: also called compound 29

The binders below were run against T1, human amylin receptor (amylin 3(a) receptor: human calcitonin receptor with RAMP-3) (human, UniProt P30988 25-474; O60896 24-148) (assay: cell-based or functional assay).
T1 sequence (looked up) 1: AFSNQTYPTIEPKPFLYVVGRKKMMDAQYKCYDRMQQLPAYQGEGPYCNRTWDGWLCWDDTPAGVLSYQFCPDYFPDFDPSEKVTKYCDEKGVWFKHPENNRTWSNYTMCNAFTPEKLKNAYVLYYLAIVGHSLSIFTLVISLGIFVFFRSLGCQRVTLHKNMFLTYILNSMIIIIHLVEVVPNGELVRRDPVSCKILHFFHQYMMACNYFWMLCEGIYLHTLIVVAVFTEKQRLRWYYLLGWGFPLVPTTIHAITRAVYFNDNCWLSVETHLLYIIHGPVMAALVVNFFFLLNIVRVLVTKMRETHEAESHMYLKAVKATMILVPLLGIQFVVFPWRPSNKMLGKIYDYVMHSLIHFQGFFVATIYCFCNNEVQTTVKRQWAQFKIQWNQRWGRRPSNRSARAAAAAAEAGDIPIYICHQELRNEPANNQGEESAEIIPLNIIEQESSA
T1 sequence (looked up) 2: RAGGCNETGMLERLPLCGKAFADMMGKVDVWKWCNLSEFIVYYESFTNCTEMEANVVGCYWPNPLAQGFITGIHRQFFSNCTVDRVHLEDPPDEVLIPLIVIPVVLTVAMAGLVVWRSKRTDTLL

Binder | hAmylin-R funct. EC50
B1 | 0.22 nM
B2 | 0.12 nM
B3 | 0.268 nM
B4 | 0.072 nM
B5 | 0.363 nM
B6 | 0.099 nM

The binders below were run against T2, human calcitonin receptor (human, UniProt P30988 25-474) (assay: cell-based or functional assay).
T2 sequence (looked up): T1 sequence (looked up) 1

Binder | Ratio hCT/hAmylin funct. | hCTR funct. EC50
B1 | 9.2 | 2.03 nM
B2 | 0.9 | 0.112 nM
B3 | 8.8 | 
B4 | 1 | 0.07 nM
B5 | 6.1 | 2.21 nM
B6 | 8.7 | 0.857 nM
